Data on two molecules can be found in paper PMC8864007 (2022).

Assay [1] has as its target T1, HER2-Fc protein (human, UniProt P04626 23-652). Put plainly: SPR.
Assay [2] addresses T1, HER2-Fc protein. As to the kind of experiment: ELISA.
Another assay addresses T2, murine HER2 (murine, UniProt P70424 23-1256).
T2 chain: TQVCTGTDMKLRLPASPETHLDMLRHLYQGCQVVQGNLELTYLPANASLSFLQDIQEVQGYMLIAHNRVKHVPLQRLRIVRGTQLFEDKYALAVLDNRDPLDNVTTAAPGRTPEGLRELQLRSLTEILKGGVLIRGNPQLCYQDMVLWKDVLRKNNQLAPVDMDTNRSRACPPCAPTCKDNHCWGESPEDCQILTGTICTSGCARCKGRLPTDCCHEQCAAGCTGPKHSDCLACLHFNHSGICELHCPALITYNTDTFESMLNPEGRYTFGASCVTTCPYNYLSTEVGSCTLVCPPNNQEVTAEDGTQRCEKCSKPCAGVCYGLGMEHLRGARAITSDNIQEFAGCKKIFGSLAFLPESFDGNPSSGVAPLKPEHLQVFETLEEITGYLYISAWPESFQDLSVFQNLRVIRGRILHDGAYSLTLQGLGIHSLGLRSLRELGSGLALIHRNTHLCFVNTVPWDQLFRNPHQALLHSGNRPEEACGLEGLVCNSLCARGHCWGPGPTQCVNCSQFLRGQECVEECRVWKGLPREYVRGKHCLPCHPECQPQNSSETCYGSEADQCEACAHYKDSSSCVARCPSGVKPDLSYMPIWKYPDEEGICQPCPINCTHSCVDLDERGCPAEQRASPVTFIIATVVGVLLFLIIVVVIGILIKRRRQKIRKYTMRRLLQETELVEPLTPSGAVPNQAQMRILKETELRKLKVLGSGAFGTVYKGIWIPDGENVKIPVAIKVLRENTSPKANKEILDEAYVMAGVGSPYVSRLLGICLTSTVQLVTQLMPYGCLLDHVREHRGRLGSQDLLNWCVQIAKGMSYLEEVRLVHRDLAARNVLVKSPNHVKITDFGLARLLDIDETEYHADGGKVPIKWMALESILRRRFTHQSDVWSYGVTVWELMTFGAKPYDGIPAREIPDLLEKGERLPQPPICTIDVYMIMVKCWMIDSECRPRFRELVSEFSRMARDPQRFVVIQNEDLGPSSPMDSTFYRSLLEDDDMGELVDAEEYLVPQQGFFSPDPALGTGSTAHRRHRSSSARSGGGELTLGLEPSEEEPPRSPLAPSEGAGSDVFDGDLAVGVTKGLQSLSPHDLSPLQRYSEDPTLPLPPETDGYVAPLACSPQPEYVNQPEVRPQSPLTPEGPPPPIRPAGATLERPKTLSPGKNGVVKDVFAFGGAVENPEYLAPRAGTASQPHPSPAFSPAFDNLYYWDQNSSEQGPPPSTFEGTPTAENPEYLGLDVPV
Put plainly: ELISA. On the technique in general: ELISA stands for enzyme-linked immunosorbent assay.

In another assay the target is Human EGFR-Fc. As to the kind of experiment: ELISA.
In the next assay the target is Human HER4-Fc. Put plainly: ELISA.
The target in a further assay is Human HER3-Fc. As to the kind of experiment: ELISA.
The target in another assay is Rhesus HER2-Fc. As to the kind of experiment: ELISA.
In the next assay the target is Cynomolgus HER2-Fc. Put plainly: ELISA.
The target in a further assay is Canine HER2-Fc. As to the kind of experiment: ELISA.
For another assay, the target named is Human IgG Fc. As to the kind of experiment: ELISA.
For a further assay, the target named is Human HER2-His6. As to the kind of experiment: ELISA.
A further assay has as its target Rat HER2-Fc. As to the kind of experiment: ELISA.

In general, koff refers to the first-order rate constant of dissociation. A lower koff goes with slow dissociation. Broadly, the EC50 is the concentration at which the effect is half-maximal. High values mean a need for much substance, low ones an effect from little substance.

B1: VHH_1028 (VHH)
VHH: EVQLVESGGGLVQAGGSLRLSCAASGITFSINTMGWYRQAPGKQRELVALISSIGDTYYADSVRGRFTISRDNAKNTVYLQMNSLKPEDTAVYYCKRFRTAAQGTDYWGQGTQVTVSS
B1 showed an off-rate constant (koff) in the assay with HER2-Fc protein [1] of 0.000718 s⁻¹. For the same molecule, the EC50 with HER2-Fc protein [2] is 0.77 nM; in the assay with murine HER2 it was > 10000 nM; with Human EGFR-Fc, > 10000 nM; in the assay with Human HER4-Fc, > 10000 nM; with Human HER3-Fc it was > 10000 nM; with Rhesus HER2-Fc it was 1.18 nM. Moreover, the EC50 is 1.19 nM with Cynomolgus HER2-Fc; 1.09 nM in the assay with Canine HER2-Fc; > 10000 nM with Human IgG Fc; 0.69 nM in the assay with Human HER2-His6; > 10000 nM with Rat HER2-Fc.

B2: iso-SGMIB-VHH_1028 (VHH)
VHH: B1 VHH
modifications: one iso-SGMIB (non-radioactive) conjugated, mono-substituted; site not stated
The molecule B2 showed a koff with HER2-Fc protein [1] of 0.00071 s⁻¹.
